assay: soluble on expression in E. coli; label from the status in PepcDB or PDB records

Row | Sequence | soluble on expression in E. coli
1 | PQPSRPRKGSLGFGPRKRSTSETPRFNSWPSDDGQPGVQGFAGYKAGMTHVVLVNDEPNSPREGMEETVPVTVIETPPMRAVALRAYEDTPYGQRPLTEVWTDEFHSELDRTLDVPEDHDPDAAEEQIRDAHEAGDLGDLRLITHTVPDAVPSVPKKKPDVMETRVGGGSVSDRLDHALDIVEDGGEHAMNDIFRAGEYADVAGVTKGKGTQGPVKRWGVQKRKGKHARQGWRRRIGNLGPWNPSRVRSTVPQQGQTGYHQRTELNKRLIDIGEGDEPTVDGGFVNYGEVDGPYTLVKGSVPGPDKRLVRFRPAVRPNDQPRLDPEVRYVSNESNQG | soluble
2 | MTAPTLAPIDPPARAQLLADLQGAPDWDVIVIGGGATGLGTAVDAAARGYRTLLVEAADFAKGTSSKATKLVHGGVRYLAQGNISLVREALHERGLLNRNAPHLVWPLGFVVPAYSLLDQPFYGVGLKMYDMLAGKLNLAPSRWLSRGETLRHAATVAERVNGRALRGGILYYDGQFDDARLAIALMRTLYDLGGVALNYARAVGLTRTDGRVDGVTVADALGELRVTLRAKCVVNATGVWVDAVRRMDDPAAQTMVAPSQGVHLTLPRDFLPGEDAILIPKTDDGRVLFVVPWNGHTIVGTTDTPRTDLPLDPQAGQNEIDFILATAARYLSRKPTRADVTSVWAGLRPLVKATGEASTKSLSREHTIVVSKGGLVTVTGGKWTTYRKMAQDVVDTAIQHKLLAAAPCRTSELPLHGAPTDGQPSGAPHGTPDSYYGTDLATLRALPGADRMLVKASALTEAHVRYAARHELARTVEDVLARRNRALFLDAEAALLAAPEVARILAQELGHDEAWSRATLAEFEAVAAHYRLALEHHHHHH | soluble
3 | MSLNNDRFAKQRVADDLDEPVEEAGNLARKLGLKPYPVNYWIVDYDEMNELIAYGGFQQRYPHWRWGMQYDRQQKQGQFLGGKAFEIVNNDDPAHAFLQESNTLADQKAVITHVEAHADFFANNEWFRMFTDGSSRTTTDESGEDRRRGPDAAGMLARHGDTIQEYMQDPDIERAEVERFIDHVLCLEDNIDQHIPYSPVETVPEEFEDIEGADVTEQLDDLELSEEVKRQVFDEEWLDAQRDDDENVTFPAEPDKDVLGFLRKHGMQYDADAERATEMEDWQIELLELLRREAYYFAPQKMTKVMNEGWASYWESLMMTGEQFAGDDEFILYSDHMSKVLGSGGLNPYSLGLEIWEYVENTENRREVIERLLRVKGITWRNFDDSVDYEMVQGRESHNDVTFLDEFLTQEFVDDNDYFTYEYTHASGDYRVTSTDHEDVKKKLMLQFTNFGKPTVVVEDGNYQNRNELLLAHQYNGVMLDIGQAKEVLKRTFELWGRPVNLLTIVKEFDDHDVEVAKREGHHHHHH | not soluble
4 | MSAWTMSDPYPATEAHAQRAAKSSPKSLLDRLLSLVRREPEDREGIKAILEAAHERELLDAESYAMIKGALAVSERTVADIMVPRSRMDLLDISQPLPQLLATIIETAHSRFPVYEDDRDNIIGILLAKDLLRYMLEPALDIRSLVRPAVFIPEVKRLNVLLREFRASRNHLAIVIDEHGGISGLVTMEDVLEQIVGDIEDEFDEDEEESIFPEGENQWRLTASTDISHFNATFATDLPDDEYDSVGGWLGGQLGRIPRRGDSADHDGLHIEVVRADARRALWLRVRRNAGAQPPASAAE | not soluble
5 | MIGKKSFQTNVYRMSKFDTYIFNNLYINDYKMFWIDSGIAKLIDKNCLVSYEINSSSIILLKKNSIQRFSLTSLSDENINVSVITISDSFIRSLKSYILGDLMIRNLYSENKDLLLWNCEHNDIAVLSEVVNGFREINYSDEFLKVFFSGFFSKVEKKYNSIFITDDLDAMEKISCLVKSDITRNWRWADICGELRTNRMILKKELESRGVKFRELINSIRISYSISLMKTGEFKIKQIAYQSGFASVSYFSTVFKSTMNVAPSEYLFMLTGVAEK | soluble
6 | MLLVSVISCLLISVLAKDAVTPRVGSQCTKNQVVRKLTVYEDGALEAECGPVPCGEVGKRCIDDQTSCRAETDVFSGMRWAPNGESILLRCCTMHAKNKIYVGTDVVAAGSFYEGGEVAEKDLYGDKGGAEYDFVANARTEQGGVRVWVYRMICAKGEKPVDFDPITTTSAPRVIKTTPAPTTTPTVEEEAEEAEQLEEDQPNDNEAEIVESNDEEEVVEEETEEEEEVTTTPAPKPFNPLRYRPPHFPRQSTGIRRA | not soluble
7 | MIIKPAGDSAFLISFGDEISEEINDRVHSLAKAIEKESPEWLVELVPAYSSLLVIYDPLKASYEEVESYLKRISAREVERIKGKTIEIPVAYGGEFGPDIEFVAQYNGLSVDDVIEIHSKPLYRVYFLGFLPGFAYLGGMDERIATPRLEKPRLKVPAGSVGIAGKQTGWYAIESPGGWRIIGRIPLRTFNPGKVPPSIVLPGDYVKFVPIDEKEFWEIYGREWE | soluble
8 | MGSDKIHHHHHHMKEAGILFEELVSIMEKLRSPEGCEWDRKQTHESLKPYLIEECYELIEAIDEKNDDMMKEELGDVLLQVVFHAQIARERGAFTIEDVIRTLNEKLIRRHPHVFGDSPGYSYKQWEDIKAQEKGKKKSSRIGEINPLVPALSMARRIQENASQVGFDWKDPEGVYEKIEEELKELKEAKDPRELEEEFGDLLFSIVNLSRFLNVDPESALRKATRKFVERFKKMEELIEKDGLVLEELPIEKLDEYWEKAKGGDET | not soluble
9 | MSLKVHHLNESRSQRILWLLEELSLPYEIVQHTRDAKTRLAPPSLTDVHPLGKSPVIQDGALVVIESGAIIDYIIRRHGGGRLAPDAASADYDRYQQWLHYAEGSAMLPLMLNMYVGRLGEAGAPLHPRIQSEIANHLAFVNDSLAGRDYFVGDSLTGADIQMSFVPEVAKAMGKLADYPHMAAWIGRMHARPAWKTALDKGGPYALGAEGHHHHHH | soluble
10 | SLRHFGKRLRVSSSQPFRRSFNPKGEPMSTQIFVNLPVKNLNQSIEFFTQLGFQFNSQFTDETATCMIVSESIFVMLLTHEKFKMFTPKEICDATKSTEVLVCLSFDSREQVDEMVRLAVTAGGTTYNEPQDHGFMYGHGFADLDGHIWEIIYMEPSAINLGEG | soluble
11 | MSLAMEHVDVLIVGAGLSGIGAAYHLQKHCPGKTYAILEGREAIGGTWDLFRYPGIRSDSDMYTLGYSFKPWKAAKAIADGPSILDYVRETAREHDIDRHIRFQHLVKRASWSSETATWTVEAEHDGKPVTLTCRFLHMCSGYYRYSAGYTPDFAGTERFKGRIVHPQHWPEDLDYSGKKVVVIGSGATAVTLVPEMAKTAAHVTMLQRSPTYVVSRPAEDGIANWLRSKLPAMTAYGITRWKNVLFQLFFFNLARKKPEKVKERLLGMVRDHLGPGYDVETHFTPRYNPWDQRLCLVPDADLFDAIKSGAASVVTDHIETFTETGIQLKSGKTLDADVIVTATGLQLQLLSGMEVVVDGKVADLSQSMSYKGMMFSDVPNLASVFGYTNASWTLKADLTSEYVCRLLNHMDRTGADYCVPRLDGEVEAAPWLDFSSGYITRSIGHFPKQGTRKPWKVHQNYALDLMTLRMGKVEDGVMQFGRKTGATAKAKPEKALEPAEGHHHHHH | soluble
12 | MGSDKIHHHHHHMAVRQDTIWERFLSPVMRLLIDEEGLRRYADSIDWEKEGDRFRRDDVIIPSYYSSQNFHGITGGYLTYNAAVSYDPITQYVVPPNETIVRQALIDAVKVKPRRILDLGCGTGSTTLMLKRAFPEAEVIGLDLSPYMLVRAEDKARNSGLEIVWRHGNAEKTSFRDATFDLVTASLLFHETPNEVSLAILQESFRLLVTGGQVLILDGNQKTLRQLEWLNDVFEEPYIREYAAGSIEANMGAAGFEAVRSQDVWWINQVTGGVKPIATENVRRYTPTSVDNNDLEGLGSPAFGIIA | not soluble
13 | SNAMKQLSGLLGELRQKLCAGFPEQAGIQQLIFPAPGLVGRQLLEWLTAQTHFPQFYWRHRDNHEEAAVCGQTRSFADMKDADDFIQQNPDANGLRIWGLNAFEPVMVFGQLTDNGLVSGKNAQASFLFLPRLEILRRGKKTSLTLNLSSETSLQKDALQAITFIDQLMAARALPVLNARIQHSSHTPGYPQWRNLIQQALNDIEQQKLDKVVLARTTTLTLNKPLSCAAFMAASRQVNHRCYHFMLRFDDRQAFLGSSPERLYLRQQLHLETEALAGTVSNLDSDPQAAVLADWLMHDEKNQRENLLVVDDICQRLQGGVTAVDVMPPEIIRLRKVQHLRRRICAQLSRASDTDCLQRLQPTAAVAGLPREAARQFIAKHELFSRGWYAGSAGYLSLKRTEFSVALRSARVDGQQIHLYAGAGIVAGSDAEQEWQEIDNKSAGLQSLLEHEAQPVKA | soluble
14 | MTIDNYDNSKQDSSKYEVSGTGDGRNGDGGLPLVQCVARARIPTTQGPDIFLHLYSNNRDNKEHLAIVFGEDIRSRSLFRRRQCETQQDRMIRGAYIGKLYPGRTVADEDDRLGLALEFDDSTGELLASKATTWDAHNDTLVRIHSECYTGENAWSARCDCGEQFDRAGRLIACDHEPTSNIKGGNGHGVIVYLRQEGRGIGLGEKLKAYNLQDLGADTVQANLMLKHPVDARDFSLGKAILLDLGIGNVRLLTNNPEKIKQVDHAPYLKCVERVPMVPIHWTNSSEGIDSKEIEGYLRTKIERMGHLLTEPLKLHTNPQPTETSEAQNQNRMNSALSSTSTLAI | soluble
15 | MGHHHHHHSHMKNSEESSSSSEDTNNATDTNTSESQDISVNGPEKVGDVYEIDGGTAKVMAISNKETTVKTGPIQFTVKKVIAAVANEQLPFIDVQIESENTSDEVVRFRPSLAQLATSTGVQIDEPSLLESDRLLDEYVGKVNDSGSIIYVFDNEEDIKDLESIRLRISSPFNEDLKNLGDKLDLKINLEH | soluble
16 | MIPLKYLQAYPASLQDQVRQLIAENRLGEYLERRYPGRHDVQSDKALYAYTMNLKQEHLRNAPGLDKVLYDNKLDVVQRALGLHTAISRVQGGKLKAKKEIRVASLFKDAAPEFLRMIVVHELAHLKESEHNKAFYQLCQYMLPDYHQLEFDLRVYLTWKSLAAALEHHHHHH | not soluble
17 | MKKICMKNGMKIIYEYRESDITSFCVAFNAGAEREGKKERGLAHVVEHCIFKGTKKRSEAQINSEFDEIFGFNNAMTNFPYVIYYGTTLSKDFEKGFELYSDIIVNPTFSEEGFEEEKSIICEELTEWKDDKQQFCEDELLKNSFSNIRLKECIIGNEKNIKDFSIDELRKFYKKYYTSDNCVIGIVTSLKEEEVTDIINNYMTLSKREKPSLFDYEYEKNTSGIFTSKMDVKGAVIQYLFPIYKLKDDEIKALRAFNVIFGEGTSSMLYDKIRTKYGLAYDIYSKINNDGGIKLFYIGLGTASENFDKSIEFVNDTICEAKNLKGQFSSDKLLKIEKTMSLKRSLKLERSIQLAKELATYELMYGKAENVYDEVKDINLLNEDYIIEVVRSVLVTPSIQVVKPNK | not soluble
18 | MGSDKIHHHHHHMNNSIITDDEVREFYLNCSSQTIIESLLSLHESLRLYSQNHEILLNRMFKKLDETNADSNISHIFMPVVSKDFSGIKILVNNNNKNFQGVINVIEPETGKLIGCFEAKQITAIRTALASCIGLYKQLSCSHDKLFRFENGTCYLTCFGTGLQAFWHIYIAIKLIMSGIVGESLKLVEINILYHNNMMSLDRLKSLKNLFGSNIKIELNQYQINDISSEGNGAVSNSDIIFGCLPTLEPNLFLRQLLNSKASVEQKHTYISLIGSYKPVMHECDKELIDKFKSDNESACILVDSREHTLLESGELIDSNIAPHNLIEIGELDTLKNTVLNLNEKGCKRTITLCKIVGLAVMDVALAKEFLSLRTKNTENKE | not soluble
